Test results as given in publication doi:10.1101/2023.12.01.569227 (bioRxiv, 2023).
Numbering of substitutions follows the chain as printed.

B1: Seq8 (VHH)
VHH: QVQLQESGGGLVQAGGSLRLSCAASGYGFSEYAMGWFRQAPGKEREFVATISWSGRSTYYTDSVKGRFTISRDNAKNTVYLQMNSLKPDDTAVYYCARAGWGVVVSEWDYDYDYWGQGTQVTVSS
B2: Seq4 (VHH)
VHH: B1 VHH with Y27R, G28S, S57A, W101Y
B3: Seq7 (VHH)
VHH: B1 VHH with Y27L, G28K, Y32T, W101Y
B4: Seq12 (VHH)
VHH: B1 VHH with Y27R, G28T, R56G, T58K, R98A, W101L, V103T
B5: Seq2 (VHH)
VHH: B1 VHH with Y27R, R56G, S57G, W101F, V104W
B6: Seq3 (VHH)
VHH: B1 VHH with Y27R, G28M, Y32T, S57G, R98G, W101Y, V104Y
B7: Seq5 (VHH)
VHH: B1 VHH with Y27R, G28M, R56K, S57G, W101F, V104Y
B8: Seq6 (VHH)
VHH: B1 VHH with Y27R, G28L, R98K
B9: Seq1 (VHH)
VHH: B1 VHH with Y27R, G28T, Y32T, S57G, R98Y, W101Y
B10: Seq11 (VHH)
VHH: B1 VHH with Y27R, G28K, S57L, R98G, W101Y

Molecular target: SARS-CoV-2 RBD (SARS-CoV-2, Wuhan-Hu-1, UniProt P0DTC2, biotinylated with an EZ-Link NHS-PEG4 biotinylation kit)
Test: BLI

Binder | fold improvement in binding affinity over VHH-72 [fold] | binding result
B1 | > 2 | 
B2 | > 2 | 
B3 | > 2 | 
B4 |  | binds
B5 | > 2 | 
B6 | > 2 | 
B7 | > 2 | 
B8 | > 2 | 
B9 | > 2 | 
B10 | > 2 | 
